Values quoted from earlier work, collected in paper PMC7851832.

Molecular target: FGFR2 (Homo sapiens) (UniProt P21802)
Sequence (P21802 22-821): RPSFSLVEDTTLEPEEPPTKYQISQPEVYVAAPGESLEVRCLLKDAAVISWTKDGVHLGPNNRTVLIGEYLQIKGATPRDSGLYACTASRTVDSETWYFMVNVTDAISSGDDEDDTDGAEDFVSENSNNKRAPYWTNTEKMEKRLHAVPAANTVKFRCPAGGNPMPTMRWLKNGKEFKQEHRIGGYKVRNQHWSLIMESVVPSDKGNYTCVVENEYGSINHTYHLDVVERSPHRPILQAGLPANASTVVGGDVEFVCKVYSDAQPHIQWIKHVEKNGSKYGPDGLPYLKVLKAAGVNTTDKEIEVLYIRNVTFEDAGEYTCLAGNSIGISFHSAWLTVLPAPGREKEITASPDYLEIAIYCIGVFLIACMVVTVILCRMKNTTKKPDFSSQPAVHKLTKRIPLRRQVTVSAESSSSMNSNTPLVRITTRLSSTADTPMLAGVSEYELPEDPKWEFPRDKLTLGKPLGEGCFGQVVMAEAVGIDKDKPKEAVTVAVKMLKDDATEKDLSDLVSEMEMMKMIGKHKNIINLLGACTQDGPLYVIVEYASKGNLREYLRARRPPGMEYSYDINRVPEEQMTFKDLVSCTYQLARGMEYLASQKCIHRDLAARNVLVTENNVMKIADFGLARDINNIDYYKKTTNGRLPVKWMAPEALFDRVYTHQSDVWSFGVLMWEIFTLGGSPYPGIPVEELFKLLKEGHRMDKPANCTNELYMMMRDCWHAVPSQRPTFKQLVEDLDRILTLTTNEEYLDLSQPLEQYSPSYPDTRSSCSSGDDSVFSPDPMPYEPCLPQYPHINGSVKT

Sequence of FGF1 (P05230 16-155): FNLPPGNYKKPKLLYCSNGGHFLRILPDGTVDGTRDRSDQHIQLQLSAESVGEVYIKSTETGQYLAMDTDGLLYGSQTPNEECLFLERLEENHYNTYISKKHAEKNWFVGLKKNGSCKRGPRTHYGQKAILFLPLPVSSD

FGF1 (from UniProt P05230)
Kd: 0.3 µM
